Assay results taken from the DeepSol protein solubility set.

Assay: soluble on expression in E. coli; label from the status in PepcDB or PDB records

Sequence | soluble on expression in E. coli
SMLGPEGGEGFVVKLRGLPWSCSVEDVQNFLSDCTIHDGAAGVHFIYTREGRQSGEAFVELGSEDDVKMALKKDRESMGHRYIEVFKSHRTEMDWVLKHSGPNSADSANDGFVRLRGLPFGCTKEEIVQFFSGLEIVPNGITLPVDPEGKITGEAFVQFASQELAEKALGKHKERIGHRYIEVFKSSQEEVRSYSDPPLKFMSVQRPGPYDRPGTARRYIGIVKQAGLERMRPGAYSTGYGGYEEYSGLSDGYGFTTDLFGRDLSYCLSGMYDHRYGDSEFTVQSTTGHCVHMRGLPYKATENDIYNFFSPLNPVRVHIEIGPDGRVTGEADVEFATHEEAVAAMSKDRANMQHRYIELFLNSTTGASNGAYSSQVMQGMGVSAAQATYSGLESQSVSGCYGAGYSGQNSMGGYD | soluble
MMRLANGIVLDKDTTFGELKFSALRREVRIQNEDGSVSDEIKERTYDLKSKGQGRMIQVSIPASVPLKEFDYNARVELINPIADTVATATYQGADVDWYIKADDIVLTKDSLEHHHHHH | not soluble
MSLGSKIVVTGATGNVGTSVVRLLSEDPEVGTVLGLARRIPDWSPAKTEWAAVDLASEQSDLTSHFADADAVVHLAWAFQPTHDPATTWRTNVLGSIRVFEAVAAAGVPALVHASSVGAYSPGPKNHAVDESWPTHGWPDAAYCREKAYLERALDTFERDHPGIRVVRMRPAFLFKRESASEQRRIFGGRFLPGPAARPELLPFLPDVPGLRVQALHTDDAARAYRLAVRSADARGAFNLAAEPPVDAELLGELLGVRPVRLPRAAARSAIAAAWGMRLLPASPHLFDAVLRLPVMDCTRARVELGWGATRTATEVLEEFLRGLRQGAGADTEGHHHHHH | soluble
MGSDKIHHHHHHMLHFKHSSVINATPEVVWKFHERPDILQLLNPPWQPVQVVRREGGLNVGAITEFRLFLGPLPLTWLARHTECDKYRLFTDEQISGPFESWVHRHEFEPEAGKTRLTDAISFSMPGGETVEFVSGWLVQVQLEAMFRYRHYVTKRECESQ | not soluble
MAHHHHHHMADRADHYINQLNDAYALKVGGIYNHSTLASSNHNKAHTFGSMPHALIQMFEGDVVKAVEAYHKTFPEDDLYALVDFHNDVISDSLACLKAFKNKLKAVRIDTSKALIDKMFSEGEAEYGVTQNQVKRLREALDANGGKHVKITVSSGFNAKRIKEFEDENTPVDTYGVGASLLKI | soluble
GSSANDWQCKTCSNVNWARRSECNMCNTPKYAK | soluble
AQVSNGSNSGQMEEINTKEVAQRITTELKRYSIPQAIFAQRVLCRSQGTLSDLLRNPKPWSKLKSGRETFRRMWKWLQEPEFQRMSALRLAACKRKEQEHGKDRGNT | soluble
MAHHHHHHMGENRRPSRWSSERYTNLFVPNYIPPELMLYDEGQFLRAFLLRVLSIDLNRLIETKRCGDYFINIPLVPEYNSEGQRTNTPDELVAEKRLKVMDELTNLLRQHSELELNAKTQKEVVRKRYFTQEEMDNGAYGAILGARGMVHQELERLTKCKIVLAGRGITNALKDTSANAARVALEDPHARITAPNEQALQHAMERIEWILSDDPEALEFRENNRKRMAQIEGRYDPRTWVSLAERNAKNPRRMGEKREREEEAKEELDADLQEFLDEL | soluble
MNNSEGLKSFQQSLADLPQWVSERLLQQINQLTNYEPVIGIMGKTGVGKSSLCNALFAGDISPVSDVAACTREPLRFRLQVGDRYITLMDLPGVGESGARDTEYAALYREQLPRLDLVLWLIKADDRALTVDEHFYHQVIGEVYRHKVLFVISQSDKAEPTSGGGQLSTAQKQNISRKICLLHELFQPVHPVCAVSVRLQWGLKVMAERMIKCLPREATSPVVSQLHPSFRTTVVREQARSDFGETVGAVLDSISAFPLIPAPVRAVIQAVRTTVVSVARAVWDFFF | soluble
MSLSSLGAPAISAASFLQDLIHRYGEGDSPTLQQLKALLNHLDVGVGRGNVTQHVQGHRNLSTCFSSGDLFTAHNFSEQSRIGSSELQEFCPTILQQLDSRACTSENQENEENEGHHHHHH | soluble
MFQIQETIVSPDLFDKYFVCDYATCQGICCVEGESGAPLEAGEADLLRKYLDAVRDMLSSEALEVIDKQGVSYLDVEGDEVTSIVNGRDCVFTTYDEKGNCLCAFERAYRLGKIDFPKPLSCHLYPVRLTRYSSFTAVNYHRWEICRCAEALGRQMGTPLYRFLKEPLIRAFGKEWYKEMEEIAALLEQNPLKR | not soluble
TQNPIANPLAAKKRRDHVLERLLEEHYINEEQYQNAVNQPITAKYHGTNIKVKAPYVAEMIRQSLYDNFGPEAYTKGY | not soluble
MGSDKIHHHHHHMKILFLADEESKMYWEYFKKEDFKGIDIIVSCGDLNPSYLSFLTTMVGVPLLYVHGNHDDKYNVKPPEGCICIEDEIYEYEGVRFLGLGGSNRYKPGENQYTQKEMTKRVKKLWWKLKRKNGFDVLVTHSPAKGLHDGEDTCHTGFDVFNRLIEQYKPRYFVHGHVHMSYGRQFVRLDKVGETTVINAYEKYIVEI | not soluble
MAHHHHHHMNKHICIYGGSFDPITHAHEMVLAEVSSLDWVDEIWVVLCRCRNDKHLTEFQHRHNMFSLIMNNNSPKMLKNKIFLKDIECKETTTPTYDLLKMQKEKYPNYTFYFTIGSDLLNDIFFWDNGEKLVAENNFIIVERGNFKIDENVLKKFPSYYLIKIENMSFINYISSSDARKMLSQKNNSEDLQKYIHPVIINYIKEHDLYDNNSA | soluble
MLKISNSVTLQEWEIQLTPIRAQGNGGQNVNKVATAIHLRFDIHHSSLPEFYKERLLALSDSRITKDGVVIIKAQQFRTQEKNKEDALNRLQELIKAAALQDKKRIKTKPTRASQRRRLDSKNKQGAKKQQRKKVLYLEHHHHHH | not soluble
AEIFATHLEAIARHTGPVRTLIDLGAGDCAKAERLLPCLRPQRYVPIDISTDFLGQAVARVRRAHPWLDVLPLGRDLNAGLDLPEAIDAQGRLFFYPGSSIGNLDPDAALALLASLRAQAGVSGGLLIGVDRVKARAIVEPAYDDALHLTGAFNLNLLRHVNSVLGSDFDVRDWTHVALYNEPRSRMEMHLQARSDIRVRWPGGQRRFQADERIHTENSYKYTIERFVDLLRRAGYGDIRYWSDARDWFSVFSARA | not soluble
MSSTALLPPNTDQVLSRRLHGKAAEKKTGLAAIASKDVDEQSRKLQEYFEFWDRNHENESEEDRARRIDGYKSVVNSYYDLATDLYEYGWSQSFHFSRFYKGEAFAQSIARHEHYLAYRMGIKPGSRVLDVGCGVGGPAREITEFTGCNLVGLNNNDYQISRCNNYAVKRNLDKKQVFVKGDFMHMPFEDNTFDYVYAIEATVHAPSLEGVYGEIFRVLKPGGVFGVYEWVMSDDYDSSIPKHREIAYNIEVGDGIPQMVRKCDAVEAIKKVGFNLLEEDDLTDHDNPDLPWYYPLTGDITKCQNIWDVFTVFRTSRLGKLVTRYSVQFLEKIGVAAKGTSKVGDTLAIAQKGLIEGGETHLFTPMFLMIAKKPETDA | soluble
MSVVSLVGQMYKREKPIPEWKTLMLRELEELFSKHRVVLFADLTGTPTFVVQRVRKKLWKKYPMMVAKKRIILRAMKAAGLELDDNLLDDLVRGQMLLVFADGNPFKIVKEVEKEKVAMPVKPGDKAETEIRIPEGMTNLTPGPILSVFGKLRIQYQVRGGKIYIAKETVVAKPGDVISEDLAGLLMALGIRPIEKGVRVKFAIDGGVLITEDLLRPDIEAFRGDVIDAAKEALGLATEIVYMPVPEAVESAIVKAALAASALAAETGFIAPGTVEDVVRKAIAEEAAVVALLGDKARELGIEEAAPAAAPAAEEKAEEEKKEEEEEKKEDQELSGLDSIFGGF | soluble
MKSNKNEFLKLLTAYQGIIHKVNRIYFRSEADREDNFQETVYQLWRSFPALQNKEKPASWIYTVAINTSISKVRKDSRIEFRDSPPDGEPVDPWEQQEQDENWQRLVNALQKLNEIDKSIMLLYMEDYSYEEIAGIVGISSSAVGVKIHRLKGQLQKQFKK | not soluble
